Source: patent publication EP4775675A1 (Shanghai Hongcheng Biopharmaceutical Co., Ltd., dated 2026)
Read-outs that look alike come from different tables or passages of the source.

What was measured:
[1] = target: T1, human BDCA-2 on cells (Jurkat-hBDCA-2 cells; human pDCs; human PBMCs) (human, UniProt Q8WTT0 1-213); test: cell-based or functional assay
T1 sequence (looked up): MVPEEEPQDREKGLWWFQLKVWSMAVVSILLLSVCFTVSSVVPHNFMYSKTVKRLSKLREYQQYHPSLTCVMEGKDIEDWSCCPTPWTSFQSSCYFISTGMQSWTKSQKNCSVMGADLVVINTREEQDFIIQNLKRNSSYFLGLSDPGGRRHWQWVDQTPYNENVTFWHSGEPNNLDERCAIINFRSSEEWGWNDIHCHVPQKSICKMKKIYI

[2] = target: T2, Human BDCA-2 protein (soluble, Octet analyte) (human, UniProt Q8WTT0 45-213, limits assumed); test: BLI (Octet Red96e), antibody on anti-human IgG sensor, human BDCA-2 protein in solution
T2 construct: Soluble protein used as analyte in BLI
T2 sequence (looked up): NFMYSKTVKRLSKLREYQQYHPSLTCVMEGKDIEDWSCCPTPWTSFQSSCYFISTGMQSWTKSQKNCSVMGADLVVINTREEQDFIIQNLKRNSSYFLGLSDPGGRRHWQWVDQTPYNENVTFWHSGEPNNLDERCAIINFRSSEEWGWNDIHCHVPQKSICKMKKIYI

[3] = target: T1, human BDCA-2 on cells (Jurkat-hBDCA-2 …); test: cell-based or functional assay; remark: listed apart in the source
[4] = target: T1, human BDCA-2 on cells (Jurkat-hBDCA-2 …); test: cell-based or functional assay; remark: listed apart in the source
[5] = target: T1, human BDCA-2 on cells (Jurkat-hBDCA-2 …); test: flow cytometry on sorted human pDCs
[6] = target: T1, human BDCA-2 on cells (Jurkat-hBDCA-2 …); test: flow cytometry on Jurkat-hBDCA-2 cells
[7] = target: T1, human BDCA-2 on cells (Jurkat-hBDCA-2 …); test: flow cytometry on Jurkat-hBDCA-2 cells; remark: listed apart in the source
[8] = target: T1, human BDCA-2 on cells (Jurkat-hBDCA-2 …); test: cell-based or functional assay; remark: listed apart in the source
[9] = target: T1, human BDCA-2 on cells (Jurkat-hBDCA-2 …); test: cell-based or functional assay; remark: listed apart in the source
[10] = target: T2, Human BDCA-2 protein (soluble, Octet …); test: BLI (Octet Red96e), antibody on anti-human IgG sensor, human BDCA-2 protein in solution; remark: listed apart in the source
[11] = target: T1, human BDCA-2 on cells (Jurkat-hBDCA-2 …); test: cell-based or functional assay; remark: listed apart in the source
[12] = target: T1, human BDCA-2 on cells (Jurkat-hBDCA-2 …); test: cell-based or functional assay; remark: listed apart in the source
[13] = target: T1, human BDCA-2 on cells (Jurkat-hBDCA-2 …); test: flow cytometry on Jurkat-hBDCA-2 cells; remark: listed apart in the source
human CLEC4D = target: T3, human CLEC4D (human, UniProt Q8WXI8 39-215, limits assumed); test: ELISA, coated protein 1 µg/ml
T3 sequence (looked up): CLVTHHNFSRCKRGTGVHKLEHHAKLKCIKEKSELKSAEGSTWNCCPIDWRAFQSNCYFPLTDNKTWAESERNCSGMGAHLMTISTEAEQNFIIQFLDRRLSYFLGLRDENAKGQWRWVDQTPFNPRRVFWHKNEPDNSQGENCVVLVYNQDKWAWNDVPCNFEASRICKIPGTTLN

human CLEC6A = target: T4, human CLEC6A (human, UniProt Q6EIG7 42-209, limits assumed); test: ELISA, coated protein 1 µg/ml
T4 sequence (looked up): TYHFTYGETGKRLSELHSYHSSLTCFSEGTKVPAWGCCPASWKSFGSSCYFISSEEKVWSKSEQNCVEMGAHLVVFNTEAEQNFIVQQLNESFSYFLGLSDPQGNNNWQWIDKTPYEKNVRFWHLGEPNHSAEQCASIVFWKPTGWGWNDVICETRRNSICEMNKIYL

human CLEC4A = target: T5, human CLEC4A (human, UniProt Q9UMR7 70-237, limits assumed); test: ELISA, coated protein 1 µg/ml
T5 sequence (looked up): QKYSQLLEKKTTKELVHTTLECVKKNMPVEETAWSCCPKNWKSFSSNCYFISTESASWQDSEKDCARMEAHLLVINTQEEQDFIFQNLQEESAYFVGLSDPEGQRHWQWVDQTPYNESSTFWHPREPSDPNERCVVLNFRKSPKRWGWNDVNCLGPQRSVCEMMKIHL

human CLEC4E = target: T6, human CLEC4E (human, UniProt Q9ULY5 41-219, limits assumed); test: ELISA, coated protein 1 µg/ml
T6 sequence (looked up): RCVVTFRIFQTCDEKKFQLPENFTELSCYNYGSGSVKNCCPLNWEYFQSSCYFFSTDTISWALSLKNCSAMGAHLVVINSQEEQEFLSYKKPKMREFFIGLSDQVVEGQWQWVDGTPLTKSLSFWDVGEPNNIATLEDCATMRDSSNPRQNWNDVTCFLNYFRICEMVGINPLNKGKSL

[14] = target: T7, cynomolgus monkey BDCA-2 on cells (Jurkat-cynoBDCA-2 cells; cynomolgus monkey pDCs) (cynomolgus monkey, UniProt A0A2K5UWP4 1-212); test: flow cytometry on Jurkat-cynoBDCA-2 cells
T7 construct: whole, on cells
T7 sequence: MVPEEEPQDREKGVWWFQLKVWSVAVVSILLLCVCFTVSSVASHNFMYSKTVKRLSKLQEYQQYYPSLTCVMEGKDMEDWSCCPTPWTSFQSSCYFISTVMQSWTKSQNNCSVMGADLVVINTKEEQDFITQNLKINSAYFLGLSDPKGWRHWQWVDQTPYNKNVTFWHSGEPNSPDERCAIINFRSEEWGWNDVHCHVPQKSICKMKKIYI

[15] = target: T8, cynomolgus monkey BDCA-2 protein (acro, CLC-C52H4) (cynomolgus monkey, UniProt A0A2K5UWP4 45-212); test: BLI (Octet Red96e), antibody on anti-human IgG sensor, cynomolgus monkey BDCA-2 protein in solution
T8 construct: Bought soluble protein; also called cyno BDCA-2
T8 sequence: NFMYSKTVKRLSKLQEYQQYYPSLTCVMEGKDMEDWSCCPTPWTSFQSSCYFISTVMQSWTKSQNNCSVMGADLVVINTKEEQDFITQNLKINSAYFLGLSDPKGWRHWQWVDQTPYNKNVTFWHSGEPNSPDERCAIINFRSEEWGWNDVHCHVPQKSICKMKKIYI

[16] = target: human FcγRIIIa (158V) on Jurkat-human FcγRIIIa (158V)-NFAT cells (human, UniProt P08637 17-254); test: cell-based or functional assay
Sequence of human FcγRIIIa (158V) on Jurkat-human FcγRIIIa (158V)-NFAT cells (P08637 17-254 F176V): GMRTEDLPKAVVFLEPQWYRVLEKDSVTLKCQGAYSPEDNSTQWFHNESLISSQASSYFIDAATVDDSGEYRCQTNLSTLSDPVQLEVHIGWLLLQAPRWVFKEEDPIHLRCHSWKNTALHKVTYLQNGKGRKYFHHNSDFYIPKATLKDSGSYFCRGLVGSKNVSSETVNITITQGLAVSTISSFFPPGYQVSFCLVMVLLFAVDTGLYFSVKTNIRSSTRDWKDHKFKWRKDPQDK

[17] = target: T7, cynomolgus monkey BDCA-2 on cells …; test: flow cytometry on Jurkat-cynoBDCA-2 cells; remark: listed apart in the source

B1: BIIB059 (antibody)
chain 1: not shown
chain 2: DIQLTQSPSSLSASVGDRVTITCKASQSVDYDGDSYMNWYQQKPGKAPKLLIYAASTLESGVPSRFSGSGSGTDFTLTISSLQPEDFATYYCQQANEDPRTFGQGTKVEIKRTVAAPSVFIFPPSDEQLKSGTASVVCLLNNFYPREAKVQWKVDNALQSGNSQESVTEQDSKDSTYSLSSTLTLSKADYEKHKVYACEVTHQGLSSPVTKSFNRGEC
EC50, inhibition of immune complex-induced type I interferon (IFNα) in human pDC cells [1]: 6.1 ng/mL | Kd [2]: 1.9 nM | EC50, inhibition of CpGA-induced type I interferon (IFNα) production in human PBMC cells [3]: 0.0031 µg/mL | EC50, inhibition of immune complex-induced type I interferon (IFNα) in human pDC cells [4]: 33.4 ng/mL | EC50 [5]: 0.281 µg/mL | EC50 [6]: 0.175 µg/mL | EC50 [7]: 0.224 µg/mL | EC50, inhibition of CpGA-induced type I interferon (IFNα) production in human PBMC cells [8]: 0.0132 µg/mL | EC50, inhibition of CpGA-induced type I interferon (IFNα) production in human PBMC cells [9]: 0.0021 µg/mL | Kd [10]: 3.9 nM | EC50, inhibition of immune complex-induced type I interferon (IFNα) production by human pDC cells [11]: 2.1 ng/mL | EC50, inhibition of CpGA-induced type I interferon (IFNα) production in human PBMC cells [12]: 0.0025 µg/mL | EC50 [13]: 0.0704 µg/mL

B2: 17G6A2_hzH1L7_hIgG1 (antibody)
heavy: not shown
light: DIVLTQSPASLAVSPGQRATITCRASESVSFHGTHLMHWYQQKPGQPPKLLIYAASNLESGVPARFSGSGSETDFTLTINPVEAEDTANYYCQQSIEDPPTFGGGTKVEIKRTVAAPSVFIFPPSDEQLKSGTASVVCLLNNFYPREAKVQWKVDNALQSGNSQESVTEQDSKDSTYSLSSTLTLSKADYEKHKVYACEVTHQGLSSPVTKSFNRGEC
notes: Humanized, human IgG1/kappa (hzVH01 + hzVL07)
binding result (human CLEC4D): no binding (tested: 10 µg/ml) | binding result (human CLEC6A): no binding (tested: 10 µg/ml) | binding result (human CLEC4A): no binding (tested: 10 µg/ml) | binding result (human CLEC4E): no binding (tested: 10 µg/ml) | EC50 [14]: 0.0944 µg/mL | EC50, inhibition of CpGA-induced type I interferon (IFNα) production in human PBMC cells [9]: 0.0011 µg/mL | Kd [10]: 2.9 nM | koff [10]: 0.000523 s⁻¹ | kon [10]: 179000 M⁻¹ s⁻¹ | EC50, inhibition of immune complex-induced type I interferon (IFNα) production by human pDC cells [11]: 1 ng/mL | Kd [15]: 4.8 nM | koff [15]: 0.00064 s⁻¹ | kon [15]: 130000 M⁻¹ s⁻¹ | EC50 [13]: 0.0595 µg/mL | EC50, activation of Jurkat-human FcγR IIIa (158V)-NFAT cell line with Jurkat-hBDCA-2 target cells [16]: 0.005 µg/mL

B3: 164C11B8 (murine hybridoma monoclonal antibody) (antibody, V domains shown)
VH: DVILVESGGGLVKPGGSLKLSCAASGITFSTYTMSWLRQTPEKRLEWVATINSGGDNTYYPDSVKGRFTISRDNAKNNLYLQMSSLKSEDTALYYCATYRPYYYGSVLDYWGQGTTLTVSS
VL: DIVLTQSPASLAVSLGQRATISCKASQSVDYDGNSYVNWYQQKPGQPPKLLIYGASNLESGIPDRFSGSGSGTDFTLNIHPVEEEDGATYYCQQSDEDPWTFGGGTKLEIR
notes: Mouse antibody from hybridoma; also called hybridoma 164C11B8; hybridoma antibody 164C11B8
EC50, inhibition of CpGA-induced type I interferon (IFNα) production in human PBMC cells [3]: 0.002 µg/mL | EC50 [17]: 0.233 µg/mL | EC50 [7]: 0.189 µg/mL
